Results taken from the Immune Epitope Database (IEDB).
Values belong to the sequence of their own block, whether it stands above or below them.

Tests used:
HLA-A*69:01 = assay: IEDB peptide-MHC binding, purified MHC/direct/fluorescence; filed as Kd, often an IC50 or EC50 that approximates it; ≥ and ≤ were set here for values at or beyond the usual limits of such assays; conditions: source organism: Mycobacterium tuberculosis
HLA-C*03:03 = assay: as above
HLA-B*15:02 = assay: IEDB peptide-MHC binding, purified MHC/competitive/fluorescence; filed as Kd, often an IC50 or EC50 that approximates it; ≥ and ≤ were set here for values at or beyond the usual limits of such assays
HLA-A*02:01 [1] = assay: as above; conditions: source organism: Vaccinia virus WR
HLA-A*02:01 [2] = assay: IEDB peptide-MHC binding, purified MHC/direct/fluorescence; filed as Kd, often an IC50 or EC50 that approximates it; ≥ and ≤ were set here for values at or beyond the usual limits of such assays; conditions: source organism: Orthohantavirus hantanense
HLA-A*02:11 = assay: as above; conditions: source organism: Hantaan virus Q32
HLA-A*02:12 = assay: as above; conditions: source organism: Hantaan virus Q32
HLA-A*02:19 = assay: as above; conditions: source organism: Hantaan virus Q32
HLA-A*26:01 [3] = assay: as above; conditions: source organism: Vibrio vulnificus CMCP6
HLA-A*26:02 = assay: as above
HLA-C*07:02 = assay: as above
HLA-B*27:05 = assay: IEDB peptide-MHC binding, purified MHC/competitive/fluorescence; filed as Kd, often an IC50 or EC50 that approximates it; ≥ and ≤ were set here for values at or beyond the usual limits of such assays
HLA-C*05:01 = assay: IEDB peptide-MHC binding, purified MHC/direct/fluorescence; filed as Kd, often an IC50 or EC50 that approximates it; ≥ and ≤ were set here for values at or beyond the usual limits of such assays
HLA-B*07:02 = assay: IEDB peptide-MHC binding, purified MHC/competitive/fluorescence; filed as Kd, often an IC50 or EC50 that approximates it; ≥ and ≤ were set here for values at or beyond the usual limits of such assays; conditions: source organism: Influenza A virus (A/Kayano/57(H2N2))
HLA-B*35:01 = assay: as above; conditions: source organism: Influenza A virus (A/Kayano/57(H2N2))
HLA-B*51:01 = assay: as above
HLA-A*26:01 [4] = assay: as above; conditions: source organism: Homo sapiens
HLA-B*15:01 = assay: as above; conditions: source organism: Homo sapiens
HLA-B*18:01 = assay: as above; conditions: source organism: Homo sapiens
HLA-B*27:03 = assay: as above; conditions: source organism: Homo sapiens
HLA-B*39:01 = assay: as above; conditions: source organism: Homo sapiens
HLA-B*46:01 = assay: as above; conditions: source organism: Homo sapiens
HLA-B*57:01 = assay: as above; conditions: source organism: Homo sapiens
HLA-B*48:01 = assay: as above
HLA-A*68:23 = assay: as above
HLA-B*15:42 = assay: as above
HLA-B*45:06 = assay: as above
HLA-B*83:01 = assay: as above
HLA-C*14:02 = assay: as above
HLA-A*01:01 = assay: as above; conditions: source organism: Staphylococcus aureus subsp. aureus N315
[5] = source organism: Influenza A virus (A/Kayano/57(H2N2))
[6] = source organism: Staphylococcus aureus subsp. aureus N315

Sequence: ALMDYGFRV
Kd (HLA-A*69:01): 42 nM
Kd (HLA-C*03:03; source organism: Mycobacterium tuberculosis variant bovis BCG str. Pasteur 1173P2): ≥ 20000 nM

Sequence: EQRAGYQAF
Kd (HLA-B*15:02; source organism: Vibrio vulnificus YJ016): 117 nM

Sequence: FLHESDPMV
Kd (HLA-C*03:03; source organism: Vaccinia virus WR): ≥ 20000 nM
Kd (HLA-A*02:01 [1]): 1.7 nM

Sequence: FMFNDLLKL
Kd (HLA-A*02:01 [2]): ≤ 1 nM
Kd (HLA-A*02:11): ≤ 1 nM
Kd (HLA-A*02:12): 3 nM
Kd (HLA-A*02:19): 15 nM
Kd (HLA-C*03:03; source organism: Orthohantavirus): 1250 nM

Sequence: HVIASMRHF
Kd (HLA-A*26:01 [3]): 2 nM
Kd (HLA-A*26:02; source organism: Vibrio vulnificus CMCP6): ≤ 1 nM

Kd (HLA-C*07:02; source organism: Acanthisitta chloris): 29 nM
Sequence: HYNAFQWAI

Sequence: KRMGVQVQR
Kd (HLA-B*27:05; source organism: Influenza A virus (A/environment/Hong Kong/437-10/99 (H5N1))): 99.8 nM

Sequence: LPFHNVHPL
Kd (HLA-C*05:01; [5]): ≥ 20000 nM
Kd (HLA-C*07:02; [5]): 2490 nM
Kd (HLA-B*07:02): 5.6 nM
Kd (HLA-B*35:01): ≤ 0.1 nM
Kd (HLA-B*51:01; [5]): 202 nM

Sequence: LRAAIELPL
Kd (HLA-B*27:05; source organism: Mycobacterium tuberculosis H37Ra): 160 nM

Kd (HLA-C*05:01; source organism: Homo sapiens): 8 nM
Kd (HLA-A*26:01 [4]): ≥ 20000 nM
Kd (HLA-B*15:01): ≥ 20000 nM
Kd (HLA-B*18:01): ≥ 20000 nM
Kd (HLA-B*27:03): ≥ 20000 nM
Kd (HLA-B*39:01): ≥ 20000 nM
Kd (HLA-B*46:01): ≥ 20000 nM
Kd (HLA-B*51:01; source organism: Homo sapiens): ≥ 20000 nM
Kd (HLA-B*57:01): ≥ 20000 nM
Sequence: LTDSSTLLV

Sequence: LVALTLTSY
Kd (HLA-A*26:02; source organism: Yellow fever virus): 180 nM

Kd (HLA-B*48:01; source organism: Photobacterium angustum S14): 175 nM
Sequence: MQALGHPIL

Kd (HLA-A*68:23; source organism: Homo sapiens): 67.7 nM
Kd (HLA-B*15:42; source organism: Homo sapiens): ≥ 5000 nM
Kd (HLA-B*45:06; source organism: Homo sapiens): ≥ 5000 nM
Kd (HLA-B*83:01; source organism: Homo sapiens): ≥ 5000 nM
Kd (HLA-C*14:02; source organism: Homo sapiens): 112 nM
Sequence: RLPKDFVDL

Sequence: SQDDNYFTL
Kd (HLA-C*03:03; source organism: Giardia lamblia P15): 266 nM

Kd (HLA-B*15:02; source organism: Escherichia coli str. K-12 substr. MG1655): 23.8 nM
Sequence: SQMPTSLNF

Sequence: VQHAPQVSL
Kd (HLA-B*48:01; source organism: Giardia lamblia ATCC 50803): 137 nM

Sequence: WLVNTYQNY
Kd (HLA-B*15:02; source organism: Cryptosporidium parvum): 80.2 nM

Sequence: YGLERLAAM
Kd (HLA-C*07:02; source organism: human gammaherpesvirus 4): 18 nM

Sequence: YTIGIGAFY
Kd (HLA-A*01:01): 1.5 nM
Kd (HLA-A*68:23; [6]): ≤ 0.1 nM
Kd (HLA-B*15:42; [6]): ≥ 5000 nM
Kd (HLA-B*45:06; [6]): ≥ 5000 nM
Kd (HLA-B*83:01; [6]): ≥ 5000 nM
Kd (HLA-C*14:02; [6]): 9.4 nM
